According to patent US20170007716A1 (ONCOMATRYX BIOPHARMA S L, published 2017):

Legend:
[1] = biological target: T1, human FAP on HT1080 cells (HT1080-huFAP, stable transfectants) (human, UniProt Q12884 1-760); assay: cell-based or functional assay
T1 sequence: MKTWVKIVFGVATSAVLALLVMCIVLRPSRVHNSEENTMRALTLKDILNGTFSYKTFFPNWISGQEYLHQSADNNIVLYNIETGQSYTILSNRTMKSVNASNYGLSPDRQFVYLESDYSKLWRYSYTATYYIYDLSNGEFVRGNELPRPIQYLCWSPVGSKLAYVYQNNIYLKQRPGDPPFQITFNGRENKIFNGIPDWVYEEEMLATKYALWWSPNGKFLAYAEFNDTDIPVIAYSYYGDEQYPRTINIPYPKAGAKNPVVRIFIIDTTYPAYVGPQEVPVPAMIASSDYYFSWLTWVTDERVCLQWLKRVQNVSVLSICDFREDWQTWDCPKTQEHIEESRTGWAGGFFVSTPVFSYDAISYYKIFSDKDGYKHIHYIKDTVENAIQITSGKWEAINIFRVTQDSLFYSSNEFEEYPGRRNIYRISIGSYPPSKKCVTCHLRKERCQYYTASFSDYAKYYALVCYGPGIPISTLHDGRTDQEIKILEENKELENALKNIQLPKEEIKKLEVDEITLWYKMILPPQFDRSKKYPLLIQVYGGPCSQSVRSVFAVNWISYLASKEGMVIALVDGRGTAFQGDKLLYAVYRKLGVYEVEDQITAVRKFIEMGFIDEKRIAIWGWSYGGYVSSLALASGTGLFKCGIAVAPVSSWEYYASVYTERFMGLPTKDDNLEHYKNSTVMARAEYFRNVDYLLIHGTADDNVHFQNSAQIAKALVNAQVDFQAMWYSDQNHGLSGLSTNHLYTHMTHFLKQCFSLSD

[2] = biological target: T1, human FAP on HT1080 cells …; assay: cell-based or functional assay; remark: listed apart in the source
[3] = biological target: T1, human FAP on HT1080 cells …; assay: FACS, HT1080-huFAP cells
[4] = biological target: T2, mouse FAP on HT1080 cells (HT1080-moFAP) (mouse, UniProt P97321 1-761); assay: flow cytometry, HT1080-moFAP cells
T2 construct: Murine FAP on stably transfected HT1080 cells; also called murine FAP
T2 sequence: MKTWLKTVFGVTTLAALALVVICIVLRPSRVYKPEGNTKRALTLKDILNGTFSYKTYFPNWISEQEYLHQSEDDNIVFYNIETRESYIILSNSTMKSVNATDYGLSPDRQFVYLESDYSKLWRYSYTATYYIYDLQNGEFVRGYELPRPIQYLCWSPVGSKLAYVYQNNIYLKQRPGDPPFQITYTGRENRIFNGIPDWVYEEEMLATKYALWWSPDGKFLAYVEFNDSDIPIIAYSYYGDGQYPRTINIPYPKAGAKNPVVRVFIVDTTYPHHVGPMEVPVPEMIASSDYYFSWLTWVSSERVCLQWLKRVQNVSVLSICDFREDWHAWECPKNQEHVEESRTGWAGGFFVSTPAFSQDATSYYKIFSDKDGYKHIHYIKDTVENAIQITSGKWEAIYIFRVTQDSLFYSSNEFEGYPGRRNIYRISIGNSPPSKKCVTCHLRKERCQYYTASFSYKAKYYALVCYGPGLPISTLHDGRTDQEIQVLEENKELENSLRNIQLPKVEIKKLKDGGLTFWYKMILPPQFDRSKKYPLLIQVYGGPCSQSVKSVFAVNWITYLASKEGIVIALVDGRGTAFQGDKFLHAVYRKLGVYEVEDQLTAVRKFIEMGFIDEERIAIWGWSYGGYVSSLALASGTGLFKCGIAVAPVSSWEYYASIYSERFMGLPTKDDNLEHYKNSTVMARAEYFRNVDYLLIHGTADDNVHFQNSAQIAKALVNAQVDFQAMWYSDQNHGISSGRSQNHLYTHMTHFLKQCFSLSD

[5] = biological target: T1, human FAP on HT1080 cells …; assay: flow cytometry, HT1080-huFAP cells
[6] = biological target: T2, mouse FAP on HT1080 cells (HT1080-moFAP); assay: FACS, HT1080-moFAP cells
[7] = biological target: T3, recombinant human FAP (extracellular region aa 26-760; R&D systems) (human, UniProt Q12884 26-760); assay: ELISA, rhFAP
T3 construct: also called rhFAP; recombinant FAP
T3 sequence: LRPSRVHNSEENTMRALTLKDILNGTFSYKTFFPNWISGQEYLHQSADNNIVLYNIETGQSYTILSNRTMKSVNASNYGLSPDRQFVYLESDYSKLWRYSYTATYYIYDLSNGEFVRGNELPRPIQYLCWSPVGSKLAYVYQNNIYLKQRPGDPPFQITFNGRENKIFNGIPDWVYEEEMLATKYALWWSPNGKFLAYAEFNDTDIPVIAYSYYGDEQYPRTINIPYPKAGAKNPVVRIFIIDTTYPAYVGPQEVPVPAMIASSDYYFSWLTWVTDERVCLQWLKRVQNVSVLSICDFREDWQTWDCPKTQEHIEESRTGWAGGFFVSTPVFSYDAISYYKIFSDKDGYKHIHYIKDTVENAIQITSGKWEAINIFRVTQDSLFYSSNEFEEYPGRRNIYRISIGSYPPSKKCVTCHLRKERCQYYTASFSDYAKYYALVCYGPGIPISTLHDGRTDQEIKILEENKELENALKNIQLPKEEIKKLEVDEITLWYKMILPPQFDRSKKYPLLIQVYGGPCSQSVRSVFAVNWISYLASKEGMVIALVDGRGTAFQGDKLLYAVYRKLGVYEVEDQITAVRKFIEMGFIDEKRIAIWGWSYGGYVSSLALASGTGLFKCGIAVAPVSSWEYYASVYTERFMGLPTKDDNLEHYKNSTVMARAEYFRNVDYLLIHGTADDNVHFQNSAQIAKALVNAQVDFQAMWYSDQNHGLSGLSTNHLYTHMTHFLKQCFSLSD

[8] = biological target: T3, recombinant human FAP (extracellular …); assay: ELISA, recombinant FAP coated
[9] = biological target: T3, recombinant human FAP (extracellular …); assay: QCM (Attana A100), rhFAP; KD1
[10] = biological target: T3, recombinant human FAP (extracellular …); assay: QCM (Attana A100), rhFAP; KD2

B1: Anti-FAP hu36-IgG1-recNgA immunotoxin conjugate HPS131-001-1 (antibody)
heavy: QVQLVQSGAEVKKPGASVKVSCKASGYTFTENIIHWVRQAPGQGLEWMGWFHPGSGSIKYNEKFKDRVTMTADTSTSTVYMELSSLRSEDTAVYYCARHGGTGRGAMDYWGQGTLVTVSSASTKGPSVFPLAPSSKSTSGGTAALGCLVKDYFPEPVTVSWNSGALTSGVHTFPAVLQSSGLYSLSSVVTVPSSSLGTQTYICNVNHKPSNTKVDKKVEPKSCDKTHTCPPCPAPPVAGPSVFLFPPKPKDTLMISRTPEVTCVVVDVSHEDPEVKFNWYVDGVEVHNAKTKPREEQYNSTYRVVSVLTVLHQDWLNGKEYKCKVSNKGLPSSIEKTISKAKGQPREPQVYTLPPSRDELTKNQVSLTCLVKGFYPSDIAVEWESNGQPENNYKTTPPVLDSDGSFFLYSKLTVDKSRWQQGNVFSCSVMHEALHNHYTQKSLSLSPGK
light: DIQMTQSPSSLSASVGDRVTITCRASKSVSTSAYSYMHWYQQKPGKAPKLLIYLASNLESGVPSRFSGSGSGTDFTLTISSLQPEDFATYYCQHSRELPYTFGQGTKLEIKRTVAAPSVFIFPPSDEQLKSGTASVVCLLNNFYPREAKVQWKVDNALQSGNSQESVTEQDSKDSTYSLSSTLTLSKADYEKHKVYACEVTHQGLSSPVTKSFNRGEC
chain: MIDYPSVSFNLDGAKSATYRDFLSNLRKTVATGTYEVNGLPVLRRESEVQVKSRFVLVPLTNYNGNTVTLAVDVTNLYVVAFSGNANSYFFKDATEVQKSNLFVGTKQNTLSFTGNYDNLETAANTRRESIELGPSPLDGAITSLYHGDSVARSLLVVIQMVSEAARFRYIEQEVRRSLQQATSFTPNALMLSMENNWSSMSLEIQQAGNNVSPFFGTVQLLNYDHTHRLVDNFEELYKITGIAILLFRCSSPSND
modifications: single cysteine in a hindered disulphide bond to the SMPT-derivatised antibody; derivatised with SMPT on amino groups; disulphide link to recNgA
Q: How did the “cytotoxicity on HT1080-FAP cells (cell viability), IC50” value [1] turn out when B1 was run?
A: 5000 nM

B2: ADC-558 (HPS-157-039-005), anti-FAP hu36:TAM558 ADC (antibody, V domains shown)
VH: QVQLVQSGAEVKKPGASVKVSCKASGYTFTENIIHWVRQAPGQGLEWMGWFHPGSGSIKYNEKFKDRVTMTADTSTSTVYMELSSLRSEDTAVYYCARHGGTGRGAMDYWGQGTLVTVSS
VL: DIQMTQSPSSLSASVGDRVTITCRASKSVSTSAYSYMHWYQQKPGKAPKLLIYLASNLESGVPSRFSGSGSGTDFTLTISSLQPEDFATYYCQHSRELPYTFGQGTKLEIKR
modifications: cytolysin-linker TAM558 on cysteine residues (not site-specific); cytolysin-linker TAM558 (vcPABA linker in R4 with 3 ethylene glycol spacer) on cysteine residues (not site-specific), DAR 3.92 for the whole antibody
Q: Which results are given for B2?
A: IC50 in Proliferation Arrest Assay (nM), HT1080-FAP [2]: 0.96 nM; specificity ratio between FAP(+) and FAP(-) HT1080 cells (cytotoxic activity) [1]: 500

B3: humanized anti-FAP IgG1 hu36 (hu36-IgG1) (antibody, V domains shown)
VH: QVQLVQSGAEVKKPGASVKVSCKASGYTFTENIIHWVRQAPGQGLEWMGWFHPGSGSIKYNEKFKDRVTMTADTSTSTVYMELSSLRSEDTAVYYCARHGGTGRGAMDYWGQGTLVTVSS
VL: DIQMTQSPSSLSASVGDRVTITCRASKSVSTSAYSYMHWYQQKPGKAPKLLIYLASNLESGVPSRFSGSGSGTDFTLTISSLQPEDFATYYCQHSRELPYTFGQGTKLEIKR
notes: Full-length humanized IgG1/kappa, gamma1* = deficient for ADCC and CDC; made in CHO cells; also called anti-hu/moFAP hu36; naked anti-FAP hu36-IgG1
Q: Which EC50 [3] does the source give for B3 here?
A: 0.3 nM

Q: What about the EC50 [4] of the same binder?
A: 0.25 nM

Q: What about the EC50 [5] of the same binder?
A: 0.33 nM

Q: And the EC50 [6]?
A: 0.2 nM

Q: What about the EC50 [7] of the same binder?
A: 3 nM

Q: And the EC50 [8]?
A: ~5 nM

Q: And the Kd [9]?
A: 218 nM

Q: And the Kd [10]?
A: 0.4 nM
